How the values were obtained:
[1] = target: T1, VirE2 (co-expressed with VirE1);VirE1 (Agrobacterium tumefaciens (nopaline …, UniProt P08062;P08063 1-556;1-63, |)); test: SPRi
T1 sequence 1: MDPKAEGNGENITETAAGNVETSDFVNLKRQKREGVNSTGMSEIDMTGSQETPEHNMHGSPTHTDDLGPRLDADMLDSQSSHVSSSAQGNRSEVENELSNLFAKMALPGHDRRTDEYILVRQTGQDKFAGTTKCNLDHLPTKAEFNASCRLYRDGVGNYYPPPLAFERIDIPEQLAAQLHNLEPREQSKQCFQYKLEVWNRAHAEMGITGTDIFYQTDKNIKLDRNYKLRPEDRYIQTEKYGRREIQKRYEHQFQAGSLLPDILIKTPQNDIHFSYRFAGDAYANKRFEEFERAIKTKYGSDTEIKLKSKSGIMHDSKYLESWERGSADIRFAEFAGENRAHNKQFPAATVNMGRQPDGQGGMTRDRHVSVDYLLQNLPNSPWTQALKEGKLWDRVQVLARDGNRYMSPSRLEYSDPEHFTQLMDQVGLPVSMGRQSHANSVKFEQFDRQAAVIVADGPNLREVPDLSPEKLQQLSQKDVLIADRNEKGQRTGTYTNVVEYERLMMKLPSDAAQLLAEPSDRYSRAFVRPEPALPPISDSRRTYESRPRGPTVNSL
T1 sequence 2: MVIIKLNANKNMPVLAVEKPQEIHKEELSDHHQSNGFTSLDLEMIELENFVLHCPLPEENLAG

[2] = target: T2, VirE2 (Agrobacterium tumefaciens (nopaline …, UniProt P08062 1-556)); test: SPRi
T2 sequence: T1 sequence 1

B1: ssT40 (poly-T 40-mer) (ssDNA)
DNA: TTTTTTTTTTTTTTTTTTTTTTTTTTTTTTTTTTTTTTTT
modifications: 5' C6-thiol
binding result [1]: binds
binding result [2]: binds

— article PMC4513855
